Test results: patent US20240336683A1 (published 2024)

T1: human Siglec15-Fc fusion protein (human, UniProt Q6ZMC9 20-263)
T1 construct: Bought protein (Acro #SG5-H5253 is named for the selection); also called recombinant Siglec 15-Fc fusion protein (Acro #SG5-H5253); human Siglec15-Fc protein; not shown: Fc part of the bought fusion protein
T1 sequence (looked up): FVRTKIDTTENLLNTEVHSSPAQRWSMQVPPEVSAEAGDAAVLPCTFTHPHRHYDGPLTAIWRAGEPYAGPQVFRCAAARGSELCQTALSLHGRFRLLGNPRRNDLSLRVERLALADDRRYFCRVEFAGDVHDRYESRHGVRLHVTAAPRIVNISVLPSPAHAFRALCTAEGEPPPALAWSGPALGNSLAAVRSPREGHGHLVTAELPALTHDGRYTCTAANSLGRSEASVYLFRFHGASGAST

T2: full-length human Siglec15 with C-terminal flag and Myc tags on HEK293 cells (human, UniProt Q6ZMC9 20-328)
T2 construct: whole, on cells; also called Siglec15/HEK293; HEK293-Siglec 15; not shown: C-terminal flag and Myc tags from pCMV6-Entry vector
T2 sequence (looked up): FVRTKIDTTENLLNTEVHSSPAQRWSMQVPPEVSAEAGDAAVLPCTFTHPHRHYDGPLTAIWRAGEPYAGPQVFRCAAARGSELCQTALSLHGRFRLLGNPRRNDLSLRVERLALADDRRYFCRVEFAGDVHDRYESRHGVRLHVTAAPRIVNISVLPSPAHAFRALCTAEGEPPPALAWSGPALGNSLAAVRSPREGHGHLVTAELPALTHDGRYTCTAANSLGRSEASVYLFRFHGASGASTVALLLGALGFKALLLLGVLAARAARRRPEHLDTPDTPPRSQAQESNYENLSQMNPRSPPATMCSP

B1: 2019EP47-A02 scFv (scFv, V domains shown)
VH: EVQLVQSGGGVVQPGRSLRLSCAASGFTFSSYAMHWVRQAPGKGLEWVAVISYDGSNKYYADSVKGRFTISRDNSKNTLYLQMNSLRAEDTAVYYCARSRYSSSLRRYYGMDVWGQGTTVTVSS
VL: AIQLTQSPSSLSASVGDRVTITCQATHDIANYLNWYQQKPGKAPKLLIYAASNLETGVPSRFSGSGSGTDFTFAISSLQPEDIAVYYCQQYDNLPLTFGGGTKVEIK
notes: Tested as a single-chain scFv made in E. coli with a C-terminal flag and 6x His tag
B2: 2019EP47-C12 scFv (scFv, V domains shown)
VH: EVQLVESGGGLEKPGRSLRLSCTASGFTFGDYAMSWFRQAPGKGLEWVGFITTKPYGGTTEYAASVKGRFTISRDDSKSIAYLQMNSLKTEDTAEYYCTKDSEAYYGSGSYMVGYWGQGTLVTVSS
VL: QSVLTQPPSVSLAPGKTATITCGGDNIENKDVHWYQQKPGQAPVLVIRFAADRPSGIPERFSGSSSGNTATLTISRVEAGDEADYYCQVWQSTRDHPVVVFGGGTKLTVL
notes: as for B1
B3: 2019EP47-A05 scFv (scFv, V domains shown)
VH: QMQLVQSGAEVKKPGSSVKVSCKASGGTFSSYAISWVRQAPGQGLEWMGRIIPILGIANYAQKFQGRVTITADKSTSTAYMELSSLRSEDTAVYYCAVNTYYYDSSGYYYEYFDYWGQGTLVTVSS
VL: EIVLTQSPSSLSASVGDRVTITCQASQHINNHLNWYQQKPGKGPKLLIYDVSNLEAGVPSRFSASGSGTDFSFTISSLQPEDFATYYCQQYDSLPLTFGQGTKVEVK
notes: as for B1
B4: 2020EP085-G5 scFv (scFv, V domains shown)
VH: QVQLVQSGAEVKKPGASVKVSCKASGYTFTDYYMHWVRQAPGQGLEWMGWINPNSGGTNYAQKFQGRVTMTRDTSITTAYMELSWLRSDDTAVYYCAREVGTTTTGVDYWGQGTLVTVSS
VL: VIWMTQSPSSLSASVGDRVTFTCQASQDINIYLTWYQIKPGKAPKVLIYDASTLESGVPSRFSGSGFGTHFVFTISSLQPEDFATYYCQHYDSLPLTFGGGTKVEIK
notes: as for B1
B5: 2020EP083-G11 scFv (scFv, V domains shown)
VH: EVQLVESGGGLVEPGGSLRLSCAASGFTFSSYSMSWVRQAPGKGLEWVGRIKSETDGGTTDYAGPAKGKFIISRNDAENTVSLQMNSLKFEDTAVYHCTTDSSSSWFSYSFDNWGQETLVTVSS
VL: EIVMTQSPATLSVSPGERATLSCRASQNVNSNLAWYQQKTGQAPRLLIFGASTRATGIPARFSGSGSGTEFTLTIGSLQSEDFAVYYCQQYNNWPPTFGGWTKVEIK
notes: as for B1
B6: 2020EP032-A08 scFv (scFv, V domains shown)
VH: QVQLQQWGAGLLKPSETLSLTCAVYGGSFSGYYWSWIRQPPGKGLEWIGEINHSGSTNYNPSLKSRVTISVDTSKNQFSLKLSSVTAADTAVYYCARGVYYYDSSGPRDYFDYWGQGTLVTVSS
VL: DIVMTQSPSSLSASVGDRVTITCQASQDISNYLNWYQQKPGKAPKLLIYDASNLKTGVPSRFSGSGSGTDFTFTITSLQPEDIGTYFCQQYGNLPYTFGQGTKLEIK
notes: as for B1
B7: 2020EP083-H01 scFv (scFv, V domains shown)
VH: QLQLQESGPGLVKPAETLSLTCTVSGGSVSSGDNLWDWIRQPPGKGLEWIGSIRDSGNPAYNPSLRSRVTISADTSTDQFSLKLTSVTAADTAVYYCARHSDGGYGKIYGMDVWGQGTTVTVSS
VL: DIQLTQSPSFLSASVGDRVTITCRASQAVSTYLVWYLQKPGQAPRLLIYAASTLQSGVPSRFSGSGSGTDFTLTISRLQPEDAGTYFCQQLNSNALVFGGGTKVDIK
notes: as for B1

What follows are binders tested against T1, human Siglec15-Fc fusion protein (assay: ELISA; Siglec15-Fc captured by anti-hFc, scFv titrated, anti-Flag HRP).
Procedure: An ELISA assay was developed to determine the EC50 of anti-Siglec15 antibodies. Briefly, a 384 well plate was immobilized with anti-human Fc antibody at final concentration of 2 ug/mL in 1×PBS in total volume of 25 uL per well. The plate was incubated overnight at 4° C. followed by blocking with 80 uL of superblock per well for 1 hour. Human Siglec 15-Fc was captured through immobilized anti-hFc antibody. Purified anti-Siglec 15 scFvs were 2-fold serial titrated from 200 nM. 25 uL was added to human Siglec15 immobilized wells and incubated for 1 hour with shaking. The Siglec15 binding was detected by adding 25 uL of anti-Flag HRP diluted at 1:5000 in 1×PBST. In between each step, the plate was washed 3 times with 1×PBST in a plate washer. The plate was then developed with 20 uL of TMB substrate for 5 mins and stopped by adding 20 uL of 2 N sulfuric acid. The plate was read at OD450 nm Biotek plate reader and then plotted in Prism 8.1 software.

EC50	Binder
21.9 nM	B1
9.97 nM	B2
3.35 nM	B3
3.3 nM	B4
1.29 nM	B5
5.87 nM	B6
2.54 nM	B7

Each binder was assayed against T1, human Siglec15-Fc fusion protein (assay: SPR Biacore T200; Siglec15-Fc captured on Protein A chip, scFv as analyte).
Procedure: Kinetic analysis of anti-Siglec15 scFvs were assessed by SPR technology with Biacore T200. The assay was run with Biacore T200 control software version 2.0. Protein A sensor chip was used to capture Fc fusion protein in the assay. For each cycle, 1 ug/mL of human Siglec15-Fc protein was captured for 60 seconds at flow rate of 10 ul/min on flow cell 2 in 1× HBSP buffer on Protein A sensor chip. 2-fold serial diluted HIS tag purified anti-Siglec15 scFv was injected onto both reference flow cell 1 and Siglec 15-Fc captured flow cell 2 for 150 seconds at flow rate of 30 ul/min followed by wash for 300 seconds. The flow cells were then regenerated with Glycine pH 2 buffer (GE) for 30 seconds at flow rate of 30 ul/mins. 8 concentration points from 300-0 nM was assayed per anti-Siglec15 scFv in a 96 well plate. The kinetics of scFvs binding to Siglec 15 protein was analyzed with Biacore T200 evaluation software version 3.0. The specific binding response unit was derived from subtraction of binding to reference flow cell 1 from Siglec15 captured flow cell 2.

Kd	koff	kon	Binder
58.8 nM	0.00149 s⁻¹	28700 M⁻¹ s⁻¹	B1
2.79 nM	7.77e-05 s⁻¹	27900 M⁻¹ s⁻¹	B3
10.9 nM	0.00144 s⁻¹	132000 M⁻¹ s⁻¹	B4
1.12 nM	0.000356 s⁻¹	318000 M⁻¹ s⁻¹	B5
18.1 nM	0.000842 s⁻¹	46400 M⁻¹ s⁻¹	B6
10.4 nM	0.00149 s⁻¹	143000 M⁻¹ s⁻¹	B7

The binders below were run against T2, full-length human Siglec15 with … (assay: FACS on Siglec15/HEK293 cells, scFv, anti-His detection).
Procedure: […] Cells were spun down at 1200 rpm for 5 minutes at 4° C. to remove primary antibodies. Cells were then washed once with 200 uL of full medium per well. Samples were detected with premixed anti-His Biotin Streptavidin Alexa fluor 647 by adding 100 uL of diluted secondary antibody and incubated at 4° C. for 30 minutes in the dark. Samples were spun down at 1200 rpm for 5 minutes at 4° C. and washed twice with 200 uL of 1×PBS per well. Samples were then reconstituted in 200 uL of 1×PBS and read on Attune NxT cytometer. Analysis was performed using Attune NxT software plotting the overlaying the histogram of anti-Siglec15 scFvs binding onto both negative and target cell lines.

EC50	Binder
10.6 nM	B1
13.1 nM	B2
88.3 nM	B3
1 nM	B4
0.87 nM	B5
1.6 nM	B6
0.23 nM	B7
